Laboratory results taken from paper PMC9089796.
pKd: −log10 of the molar value.

Target: His6-tagged SRC SH3SH2 (residues 84-251) (human) (UniProt P12931)
Test: SPR; His6-SRC SH3SH2 captured on Ni-NTA dextran chip (NiD200M); PTP4A1 injected for 60 seconds at 50 μL/min; 25°C; 20 mM Tris pH 8.0, 250 mM NaCl, 0.05% Tween 20; single injections fit with a 1-to-1 model

pKd: 5.82
Substance: oxidized PTP4A1 (residues 1-160) for SPR and NMR (from UniProt Q93096 1-160) (domain or fragment)
